In US20130295106A1 (ONCOMED PHARMACEUTICALS, published 2013):

Assays:
[1] = biological target: T1, recombinant FZD1 Fc protein (Biacore) (Homo sapiens (Human), UniProt Q9UP38 70-321, limits assumed); assay: SPR, Biacore 2000; Fzd Fc immobilized on CM5 chip, IgG 100 to 0.78 nM in solution
T1 construct: also called Fzd Fc; not shown: Fc part, not described
Description: (§1) The KDs of 18R8 and 18R5 antibodies were determined using the Biacore 2000 system from Biacore Lifescience (GE Healthcare). Specifically, purified anti-Fzd7 antibodies were serially diluted in 2-fold increments from 100 to 0.78 nM in HBS-P (0.01 M HEPES pH 7.4, 0.15 M NaCl, 0.005% v/v Surfactant P20). Each dilution was tested against recombinant Fzd Fc proteins immobilized onto a CM5 Biacore chip. The association and dissociation rates were measured and KD values determined using the Biaevaluation software program (Table 5, below).

[2] = biological target: T2, recombinant FZD2 Fc protein (Biacore) (Homo sapiens (Human), UniProt Q14332 24-250, limits assumed); assay: as above
T2 construct: also called Fzd Fc; not shown: Fc part, not described
T2 sequence (Q14332 24-250 limits assumed): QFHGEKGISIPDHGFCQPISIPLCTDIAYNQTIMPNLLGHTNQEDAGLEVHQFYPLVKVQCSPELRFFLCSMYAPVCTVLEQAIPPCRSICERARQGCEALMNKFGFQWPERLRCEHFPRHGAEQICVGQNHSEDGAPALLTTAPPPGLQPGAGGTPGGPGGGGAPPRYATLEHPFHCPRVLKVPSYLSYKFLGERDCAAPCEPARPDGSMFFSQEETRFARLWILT
Description: as §1

[3] = biological target: T3, FZD5-Fc (Homo sapiens (Human), UniProt Q13467 27-233, limits assumed); assay: as above
T3 construct: also called recombinant FZD5 Fc protein; not shown: Fc part, not described
T3 sequence: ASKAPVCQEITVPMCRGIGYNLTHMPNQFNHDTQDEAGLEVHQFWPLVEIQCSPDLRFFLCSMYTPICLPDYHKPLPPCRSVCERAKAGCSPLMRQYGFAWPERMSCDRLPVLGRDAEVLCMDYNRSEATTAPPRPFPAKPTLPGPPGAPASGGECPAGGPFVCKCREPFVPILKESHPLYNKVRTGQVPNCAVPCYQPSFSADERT
Description: as §1

[4] = biological target: T4, recombinant FZD7 Fc protein (Biacore) (Homo sapiens (Human), UniProt O75084 33-255, limits assumed); assay: as above
T4 construct: also called Fzd Fc; not shown: Fc part, not described
Description: as §1

[5] = biological target: T5, human FZD3 expressed on transfected HEK293 cells (human, UniProt Q9NPG1 23-666); assay: flow cytometry, HEK293 cells transiently co-transfected with FZD expression vector and GFP
T5 sequence: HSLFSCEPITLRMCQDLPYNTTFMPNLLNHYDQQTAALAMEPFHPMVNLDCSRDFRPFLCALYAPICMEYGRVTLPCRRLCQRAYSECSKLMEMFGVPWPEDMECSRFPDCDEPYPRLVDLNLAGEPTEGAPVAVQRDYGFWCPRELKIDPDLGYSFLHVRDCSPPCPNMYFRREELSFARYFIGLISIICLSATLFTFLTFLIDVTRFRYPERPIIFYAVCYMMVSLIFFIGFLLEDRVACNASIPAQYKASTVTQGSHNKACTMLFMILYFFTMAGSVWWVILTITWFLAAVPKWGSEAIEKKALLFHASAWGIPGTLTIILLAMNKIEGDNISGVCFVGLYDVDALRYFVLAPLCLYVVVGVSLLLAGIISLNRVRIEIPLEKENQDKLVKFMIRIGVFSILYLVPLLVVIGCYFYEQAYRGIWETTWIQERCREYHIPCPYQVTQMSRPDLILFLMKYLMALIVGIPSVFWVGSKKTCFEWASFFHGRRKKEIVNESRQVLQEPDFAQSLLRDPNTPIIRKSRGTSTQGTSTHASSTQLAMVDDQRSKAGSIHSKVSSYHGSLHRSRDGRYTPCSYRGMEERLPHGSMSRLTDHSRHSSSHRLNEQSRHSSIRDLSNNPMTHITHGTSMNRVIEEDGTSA
Description: (§2) To measure antibody binding to FZD by flow cytometry HEK293 cells were co-transfected with FZD expression vectors and the transfection marker GFP. Twenty-four to forty-eight hours post-transfection, cells were collected in suspension and incubated on ice with anti-FZD antibodies (10 μg/ml unless otherwise indicated) or control IgG to detect background antibody binding. The cells were washed and primary antibodies detected with Fc domain-specific secondary antibodies conjugated to a fluorescent chromophore (e.g. phycoerythrin conjugated anti-human IgG). Labeled cells were then analyzed by flow cytometry to identify anti-FZD antibodies that specifically recognize cell surface expression of FZD protein. Monoclonal antibodies 18R5 and 18R8 recognized FZD on transfected cells. As shown in FIG. 1 and FIG. 2, both 18R8 and 18R5 bind to multiple FZD including FZD1, FZD2, FZD5, FZD7, and FZD8. To examine the relative ability of 18R8 and 18R5 to bind to each FZD protein, titration analysis was conducted wherein the amount of antibody in the binding reaction was varied (FIG. 2).

[6] = biological target: T6, human FZD6 expressed on transfected HEK293 cells (human, UniProt O60353 19-706); assay: as above
T6 sequence: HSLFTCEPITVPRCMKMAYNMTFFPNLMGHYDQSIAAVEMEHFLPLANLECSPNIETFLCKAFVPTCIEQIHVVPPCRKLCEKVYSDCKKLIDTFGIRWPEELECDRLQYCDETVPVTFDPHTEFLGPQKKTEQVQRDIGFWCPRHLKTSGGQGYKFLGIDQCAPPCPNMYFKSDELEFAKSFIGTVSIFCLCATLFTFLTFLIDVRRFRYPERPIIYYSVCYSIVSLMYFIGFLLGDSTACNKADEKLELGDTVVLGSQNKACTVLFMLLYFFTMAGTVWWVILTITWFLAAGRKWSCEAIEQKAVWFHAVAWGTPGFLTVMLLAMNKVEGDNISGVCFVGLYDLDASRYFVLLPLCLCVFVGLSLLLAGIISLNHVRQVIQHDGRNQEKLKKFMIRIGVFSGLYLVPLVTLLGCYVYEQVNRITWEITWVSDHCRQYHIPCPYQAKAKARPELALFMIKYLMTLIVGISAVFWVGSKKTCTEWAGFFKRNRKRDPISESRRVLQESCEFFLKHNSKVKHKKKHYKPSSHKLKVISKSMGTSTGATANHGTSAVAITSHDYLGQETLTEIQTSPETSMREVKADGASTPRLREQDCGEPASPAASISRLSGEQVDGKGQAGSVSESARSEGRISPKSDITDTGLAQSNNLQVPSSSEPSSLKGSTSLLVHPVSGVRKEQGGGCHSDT
Description: as §2

T1 sequence (Q9UP38 70-321 limits assumed): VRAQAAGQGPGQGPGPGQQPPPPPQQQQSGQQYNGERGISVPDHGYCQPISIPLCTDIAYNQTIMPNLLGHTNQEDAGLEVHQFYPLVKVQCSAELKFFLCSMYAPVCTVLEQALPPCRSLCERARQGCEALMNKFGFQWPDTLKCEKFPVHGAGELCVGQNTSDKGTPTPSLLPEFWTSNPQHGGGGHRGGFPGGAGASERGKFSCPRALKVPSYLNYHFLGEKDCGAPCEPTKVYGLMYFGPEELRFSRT

B1: 18R8 IgG antibody (human IgG2, lambda) (antibody, V domains shown)
VH: EVQLVESGGGLVQPGGSLRLSCAASGFTFSHYTLSWVRQAPGKGLEWVSVISGDGSYTYYADSVKGRFTISSDNSKNTLYLQMNSLRAEDTAVYYCARNFIKYVFANWGQGTLVTVSS
VL: DIELTQPPSVSVAPGQTARISCSGDKLGKKYASWYQQKPGQAPVLVIYEKDNRPSGIPERFSGSNSGNTATLTISGTQAEDEADYYCSSFAGNSLEVFGGGTKLTVLG
notes: Expressed in CHO cells, protein A purified; also called 18R8 IgG2 antibody; anti-FZD antibody 18R8
For B1, the Kd [1] was 15.6 nM, the Kd [2] was 6.2 nM and the Kd [3] was 4.2 nM. The Kd [4] was 5.2 nM, the binding result [5] was “no binding (tested: 10 ug/ml)” and the binding result [6] was “no binding (tested: 10 ug/ml)”.
